Results on twelve molecules are retold here after patent publication US20250304707A1 (JOINT STOCK COMPANY BIOCAD, published 2025).

The target in assay [1] is T1, human BCMA (soluble analyte of Examples 8 and 14) (human, UniProt Q02223 1-54, limits assumed).
T1 sequence (looked up): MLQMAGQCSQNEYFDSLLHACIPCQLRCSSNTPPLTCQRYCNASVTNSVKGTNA
The assay is described as follows: BLI competition, APRIL/TNFSF13 (competitor) on AR2G sensors, premix 710 nM antibody + 71 nM human BCMA; without antibody 0.6588 nm.

Assay [2] addresses T2, human BCMA on the surface of RPMI8226 cells (human, UniProt Q02223 1-184).
T2 construct: whole, on cells; also called BCMA receptor; RPMI8226 (BCMA+)
T2 sequence (looked up): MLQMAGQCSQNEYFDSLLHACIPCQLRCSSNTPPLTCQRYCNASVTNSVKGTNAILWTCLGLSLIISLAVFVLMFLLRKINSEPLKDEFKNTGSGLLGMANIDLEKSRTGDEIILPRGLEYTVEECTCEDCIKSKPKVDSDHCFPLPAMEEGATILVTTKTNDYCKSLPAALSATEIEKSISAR
The assay is described as follows: flow cytometry on RPMI8226 (BCMA+) cells, anti-human Fc-PE, one antibody concentration (not given).

B1: Antibody 01-033 (antibody, human IgG1, kappa, L234A L235A, V domains shown)
VH: EVQLVQSGGGLVQPGGSLRLSCAASGFTFSSGLMSWVRQAPGGFEWVSGYNGGSDRAGFADSVEGRFTISRDNAKNTLYLQMNSLKPEDTAVYYCARYIANSGTYYWDYWGQGTTVTVSS
VL: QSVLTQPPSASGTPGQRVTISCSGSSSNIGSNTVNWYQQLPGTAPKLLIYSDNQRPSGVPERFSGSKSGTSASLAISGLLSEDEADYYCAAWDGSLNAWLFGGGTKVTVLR
notes: Full-length human IgG1 with L234A/L235A (pEE-HCLALA IgG1 vector) and CK light chain constant domain (pEE-CK), made in CHO-T cells; also called candidate 033
Take B1: in assay [1], the “Response (premix of antibody and BCMA on APRIL sensors)” value (“Response” for short) was -0.0078 nm. Moreover, in assay [2], the “Fluorescent signal level (sample/background)” value was determined as 14.7.

B2: Antibody 01-001 (antibody, human IgG1, kappa, L234A L235A, V domains shown)
VH: EVQLVQSGGGLVQPGGSLRLSCAVSGFTLSSSAMSWVRQAPGKGFEWVSGYNGGSDRAGFADSVEGRFTISRDNAKNTLYLQMNSLKPEDTAVYYCARYIANSGTYYWDYWGQGTLVTVSS
VL: QPVLTQPPSASGTPGQRVTISCSGSSSNIGSNTVNWYQQLPGTAPKLLIYNDSQRPSGVPDQFSGSKSGTSASLAISGLQSDNEADYYCAAWDGSLNVWMFGGGTKVTVLR
notes: Full-length human IgG1 with L234A/L235A (pEE-HCLALA IgG1 vector) and CK light chain constant domain (pEE-CK), made in CHO-T cells; also called candidate 01
Turning to B2, the “Response” value in assay [1] is -0.0081 nm. Besides, in assay [2], the “Fluorescent signal level (sample/background)” value worked out at 10.7.

B3: Antibody 01-027 (antibody, human IgG1, kappa, L234A L235A, V domains shown)
VH: EVQLVQSGGGLVQSGGSLRVSCAASGFTFSSGLMSWVRQAPGKGFEWVSGYNGGSDRAGYTDSVKGRFTISRDNAKNTLYLQMNSLKPEDTAVYYCARYIANSGTYYWDYWGQGTTVTVSS
VL: QAVLTQPPSASGTPGQRVSISCSGGISNIGSNIVNWYQHLPGTAPKLLIYSGNQRPSGVPDRFSGSKSGTSASLAISGLQSEDEADYYCSSWDSDLRNWVFGGGTKLTVLR
notes: Full-length human IgG1 with L234A/L235A (pEE-HCLALA IgG1 vector) and CK light chain constant domain (pEE-CK), made in CHO-T cells; also called candidate 027
Regarding B3, the “Response” value in assay [1] is 0.017 nm. Besides, the “Fluorescent signal level (sample/background)” value in assay [2] amounted to 19.1.

B4: Antibody 01-025 (antibody, human IgG1, kappa, L234A L235A, V domains shown)
VH: EVQLVQSGGGLVQSGGSLRVSCAASGFTFSSGLMSWVRQAPGKGFEWVSGYNGGSDRAGYTDSVKGRFTISRDNAKNTLYLQMNSLKPEDTAVYYCARYIANSGTYYWDYWGQGTTVTVSS
VL: QPVLTQPPSVSEAPRQRVTISCSGSSSNIGNNAVNWYQQLPGKAPKLLIYSTNQRPSGVPDRFSGSKSGTSASLAISGLQSEDEADYYCAAWDDRVSAWLFGGGTKLTVLR
notes: Full-length human IgG1 with L234A/L235A (pEE-HCLALA IgG1 vector) and CK light chain constant domain (pEE-CK), made in CHO-T cells; also called candidate 025
Consider B4, for which the “Response” value in assay [1] was 0.0259 nm. Besides, the “Fluorescent signal level (sample/background)” value in assay [2] came to 15.

B5: Antibody 01-021 (antibody, human IgG1, kappa, L234A L235A, V domains shown)
VH: QVQLVQSGGGLVQPGGSLRLSCAASGFTFSSGLMSWVRQAPGKGFEWVSGYNGGSDRAGFADSVEGRFTISRDNAKNTLYLQMNSLKPEDTAVYYCARYIANSGTYYWDYWGQGTLVTVSS
VL: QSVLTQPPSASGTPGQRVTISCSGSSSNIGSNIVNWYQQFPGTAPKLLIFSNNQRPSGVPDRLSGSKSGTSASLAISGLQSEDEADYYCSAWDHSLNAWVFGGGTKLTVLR
notes: Full-length human IgG1 with L234A/L235A (pEE-HCLALA IgG1 vector) and CK light chain constant domain (pEE-CK), made in CHO-T cells; also called candidate 021
B5: the “Response” value in assay [1] is -0.0015 nm. Moreover, in assay [2], the “Fluorescent signal level (sample/background)” value is 9.99.

B6: Antibody 01-037 (antibody, human IgG1, kappa, L234A L235A, V domains shown)
VH: EVQLVQSGGGLVQSGGSLRVSCAASGFTFSSGLMSWVRQAPGKGFEWVSGYNGGSDRAGYTDSVKGRFTISRDNAKNTLYLQMNSLKPEDTAVYYCARYIANSGTYYWDYWGQGTTVTVSS
VL: SYVLTQPPSASGTPGQRVTISCSGTRSNIGTNTVNWYQQLPGTAPKLLIYRNNQRPSGVPDRFSGSKSGTSASLAISGLQSEDEADYYCAVWDDRVSAWLFGGGTKLTVLR
notes: Full-length human IgG1 with L234A/L235A (pEE-HCLALA IgG1 vector) and CK light chain constant domain (pEE-CK), made in CHO-T cells; also called candidate 037
Take B6: in assay [1], the “Response” value worked out at 0.0304 nm. Besides, the “Fluorescent signal level (sample/background)” value in assay [2] stood at 11.7.

B7: Antibody 01-030 (antibody, human IgG1, kappa, L234A L235A, V domains shown)
VH: EVQLVQSGGGLVQPGGSLRVSCAASGFSFSSGLMSWVRQAPGKGFEWVSGYNGGSDRAGFADSVEGRFTISRDNAKNTLYLQMNSLKPEDTAVYYCARYIANSGTYYWDYWGQGTLVTVSS
VL: QSALTQPPSASGTPGQRVTISCSGSISNIGSNTVNWYQHLPGTAPKLLIYNHNQRPSGVPDRFSGSTSGTSASLAISGLQSEDEADYFCATWDDSLSAWLFGGGTKLTVLR
notes: Full-length human IgG1 with L234A/L235A (pEE-HCLALA IgG1 vector) and CK light chain constant domain (pEE-CK), made in CHO-T cells; also called candidate 030
Take B7: the “Response” value in assay [1] is -0.0066 nm. Besides, in assay [2], the “Fluorescent signal level (sample/background)” value came out at 16.5.

B8: Antibody 01-016 (antibody, human IgG1, kappa, L234A L235A, V domains shown)
VH: EVQLVQSGGGLVQPGGSLRLSCAVSGFTFSSSVMSWVRQAPGKGFEWVSGYNGGSDRAGFADSVEGRFTISRDNAKNTLYLQMNSLKPEDTAVYYCARYIANSGTYYWDYWGQGTLVTVSS
VL: QPVLTQPPSVSEAPRQRVTISCSGSSSNIGNNAVNWYQQLPGKAPKLLIFKNNQRPSGVPDRFSGSKSGTSASLVISGLQSEDEADYYCAAWDGSLNAWMFGGGTKLTVLR
notes: Full-length human IgG1 with L234A/L235A (pEE-HCLALA IgG1 vector) and CK light chain constant domain (pEE-CK), made in CHO-T cells; also called candidate 016
B8: the “Response” value in assay [1] was -0.0062 nm. Moreover, the “Fluorescent signal level (sample/background)” value in assay [2] was 7.87.

B9: Antibody 01-006 (antibody, human IgG1, kappa, L234A L235A, V domains shown)
VH: EVQLVQSGGGLVQPGGSLRLSCSASGFTFSSGLMSWVRQAPGKGFEWVSGYNGGSDRAGYTDSVKGRFTISRDNAKNTLYLQMNSLKPEDTAVYYCARYIANSGTYYWDYWGQGTLVTVSS
VL: QAVLTQPPSVSGTPGQRVTISCSGSTSNIGHRTVNWYQQFPGAAPKLLIYRNNQRPSGVPARFSGSKSGTSASLAISGLQSEDEADYHCAAWDDSLTAWVFGGGTQLTVLR
notes: Full-length human IgG1 with L234A/L235A (pEE-HCLALA IgG1 vector) and CK light chain constant domain (pEE-CK), made in CHO-T cells; also called candidate 06
For B9, the “Response” value in assay [1] worked out at 0.0464 nm. The “Fluorescent signal level (sample/background)” value in assay [2] worked out at 9.61.

B10: Antibody 01-026 (antibody, human IgG1, kappa, L234A L235A, V domains shown)
VH: EVQLVQSGGGLVQSGGSLRVSCAASGFTFSSGLMSWVRQAPGKGFEWVSGYNGGSDRAGYTDSVKGRFTISRDNAKNTLYLQMNSLKPEDTAVYYCARYIANSGTYYWDYWGQGTTVTVSS
VL: QSVLTQPPSVSGAPGQRVTISCTGSSSNIGAGYDVHWYQQLPGTAPKLVIYGNTNRPSGVPDRFSGSKSGTSASLAISGLQSEDEADYYCAAWDDSLNGWVFGGGTKLTVLR
notes: Full-length human IgG1 with L234A/L235A (pEE-HCLALA IgG1 vector) and CK light chain constant domain (pEE-CK), made in CHO-T cells; also called candidate 026
B10: the “Response” value in assay [1] was 0.0111 nm. Moreover, the “Fluorescent signal level (sample/background)” value in assay [2] was 12.1.

B11: Antibody 01-024 (antibody, human IgG1, kappa, L234A L235A, V domains shown)
VH: EVQLVQSGGGLVQSGGSLRVSCAASGFTFSSGLMSWVRQAPGKGFEWVSCYNGGSDRAGYTDSVKGRFTISRDNAKNTLYLQMNSLKPEDTAVYYCARYIANSGTYYWDYWGQGTTVTVSS
VL: QAVLTQPPSASGTPGQRVSISCSGGISNIGSNIVNWYQHLPGTAPKLLIYSGNQRPSGVPDRFSGSKSGTSASLAISGLQSEDEADYYCSSWDSDLRNWVFGGGTKLTVLR
notes: Full-length human IgG1 with L234A/L235A (pEE-HCLALA IgG1 vector) and CK light chain constant domain (pEE-CK), made in CHO-T cells; also called candidate 024
As to B11, in assay [1], the “Response” value came to 0.0151 nm. Further, the “Fluorescent signal level (sample/background)” value in assay [2] came to 19.9.

B12: Antibody 01-022 (antibody, human IgG1, kappa, L234A L235A, V domains shown)
VH: EVQLVQSGGGLVQSGGSLRVSCAASGFTFSSGLMSWVRQAPGKGFEWVSGYNGGSDRAGYTDSVKGRFTISRDNAKNTLYLQMNSLKPEDTAVYYCARYIANSGTYYWDYWGQGTTVTVSS
VL: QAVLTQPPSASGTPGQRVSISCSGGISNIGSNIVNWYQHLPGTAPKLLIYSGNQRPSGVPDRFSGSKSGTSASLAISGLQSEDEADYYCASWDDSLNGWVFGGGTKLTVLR
notes: Full-length human IgG1 with L234A/L235A (pEE-HCLALA IgG1 vector) and CK light chain constant domain (pEE-CK), made in CHO-T cells; also called candidate 022
With B12, the “Response” value in assay [1] was 0.013 nm. Moreover, the “Fluorescent signal level (sample/background)” value in assay [2] turned out to be 9.57.
